How the values were obtained:
Experiment in all cases: cell-based or functional assay
[1] = molecular target: hemagglutinin (HA) of influenza B/Massachusetts/02/12 (Yamagata) (influenza B virus)
[2] = molecular target: hemagglutinin (HA) of influenza B/Malaysia/2506/04 (Victoria) (influenza B virus)
[3] = molecular target: hemagglutinin (HA) of influenza B/Harbin/7/94 (Yamagata) (influenza B virus)
[4] = molecular target: hemagglutinin (HA) of influenza B/Lee/40 (Old) (influenza B virus) (UniProt P03460)
[5] = molecular target: hemagglutinin (HA) of influenza B/Florida/04/06 (Yamagata) (influenza B virus)
[6] = molecular target: HA of H3N2 A/Brisbane/10/2007 (influenza A virus)
[7] = molecular target: HA of H1N1 A/Brisbane/59/07 (influenza A virus)
[8] = molecular target: HA of H7N3 A/NIBRG/60 (A/mallard/NL/12/00) (influenza A virus)
[9] = molecular target: HA of H5N1 A/Vietnam/1194/04 (influenza A virus)
[10] = molecular target: HA of H1N1 A/New Caledonia/20/1999 (influenza A virus)
[11] = molecular target: hemagglutinin (HA) of influenza virus H5N1 A/Vietnam/1194/04 (influenza A virus)
[12] = molecular target: hemagglutinin (HA) of influenza virus H7N3 A/NIBRG/60 (A/mallard/Netherlands/12/00) (influenza A virus)
[13] = molecular target: hemagglutinin (HA) of influenza virus B/Lee/40 (Old) (influenza B virus) (UniProt P03460)
[14] = molecular target: hemagglutinin (HA) of influenza virus B/Florida/04/06 (Yamagata) (influenza B virus)
[15] = molecular target: hemagglutinin (HA) of influenza virus H1N1 A/Puerto Rico/8/34-MA (influenza A virus)
[16] = molecular target: hemagglutinin (HA) of influenza virus H3N2 A/HK/1/68-MA (influenza A virus)
[17] = molecular target: hemagglutinin (HA) of influenza virus H1N1 A/California/07/09 (influenza A virus)
[18] = molecular target: hemagglutinin (HA) of influenza virus H3N2 A/Wisconsin/67/05 (influenza A virus)
[19] = molecular target: hemagglutinin (HA) of influenza A/Brisbane/10/07 (H3N2) (influenza A virus A/Brisbane/10/07 (H3N2))
[20] = molecular target: hemagglutinin (HA) of influenza A/Hong Kong/1/68 (H3N2) (influenza A virus A/Hong Kong/1/68 (H3N2)) (UniProt Q91MA7)
[21] = molecular target: hemagglutinin (HA) of influenza A/New Caledonia/20/99 (H1N1) (influenza A virus A/New Caledonia/20/99 (H1N1))
[22] = molecular target: hemagglutinin (HA) of influenza A/Vietnam/1194/04 (H5N1) (influenza A virus A/Vietnam/1194/04 (H5N1))
[23] = molecular target: hemagglutinin (HA) of influenza A/California/07/09 (H1N1) (influenza A virus A/California/07/09 (H1N1))

B1: SD3085 (VHH)
VHH: EVQLVESGGGLVQPGGSLRLSCAASGFTFSTSWMYWLRQAPGKGLEWVSVINTDGGTYYADSVKGRFTISRDNSKNTLYLQMNSLRAEDTAVYYCAKDWGGPEPTRGQGTLVTVSS
VNA IC50 [1]: 32 nM
VNA IC50 [2]: 13 nM
VNA IC50 [3]: 228 nM
VNA IC50 [4]: > 1000 nM
VNA IC50 [5]: 64 nM

B2: SD1017 (VHH)
VHH: EVQLVESGGGLVQAGGSLRLSCAASGRTYAMAWFRQAPGKEREFVAHINALGTRAYYSDSVEGRFTISRDNAKNTGYLQMNSLEPEDTAVYVCAAGGQWRAAPVADAAQYDFWGQGTQVTVSS
VNA titer [6]: > 1000 nM
VNA titer [7]: > 1000 nM
VNA titer [8]: 34.7 nM
VNA titer [9]: > 1000 nM
VNA titer [10]: > 1000 nM

B3: MD2402 (protein)
chain: EVQLVESGGGLVQPGGSLRLSCAVSISIFDIYAMDWYRQAPGKQRDLVATSFRDGSTNYADSVKGRFTISRDNAKNTLYLQMNSLKPEDTAVYLCHVSLYRDPLGVAGGMGVYWGKGALVTVSSAAAGGGGSGGGGSGGGGSGGGGSGGGGSGGGGSGGGGSEVQLVESGGGLVQAGGSLKLSCAASGRTYAMGWFRQAPGKEREFVAHINALGTRTYYSDSVKGRFTISRDNAKNTEYLEMNNLKPEDTAVYYCTAQGQWRAAPVAVAAEYEFWGQGTQVTVSSLINLEGGGGSGGGGSGGGGSGGGGSGGGGSGGGGSGGGGSPAGEVQLVESGGGLVQPGGSLRLSCAATGFTLENKAIGWFRQTPGSEREGVLCISKSGSWTYYTDSMRGRFTISRDNAENTVYLQMDSLKPEDTAVYYCATTTAGGGLCWDGTTFSRLASSWGQGTQVTVSSAAAGGGGSGGGGSGGGGSGGGGSGGGGSGGGGSGGGGSEVQLVESGGGLVQPGGSLKLSCAASGFTFSTSWMYWLRQAPGKGLEWVSVINTDGGTYYADSVKDRFTISRDNAKDTLYLQMSSLKSEDTAVYYCAKDWGGPEPTRGQGTQVTVSS
average neutralization titer [11]: 23.8 nM
average neutralization titer [12]: 33.6 nM
average neutralization titer [13]: 35.4 nM
average neutralization titer [14]: 14.1 nM
average neutralization titer [15]: 12.8 nM
average neutralization titer [16]: 28.3 nM

B4: MD1216 (bispecific antibody)
chain: EVQLVESGGGLVQPGGSLRLSCAVSISIFDIYAMDWYRQAPGKQRDLVATSFRDGSTNYADSVKGRFTISRDNAKNTLYLQMNSLKPEDTAVYLCHVSLYRDPLGVAGGMGVYWGKGALVTVSSAAAGGGGSGGGGSGGGGSGGGGSGGGGGGSGGGGSGGGGSGGGGSGGGGSGGGGSGGGGSEVQLVESGGGLVQAGGSLKLSCAASGRTYAMGWFRQAPGKEREFVAHINALGTRTYYSDSVKGRFTISRDNAKNTEYLEMNNLKPEDTAVYYCTAQGQWRAAPVAVAAEYEFWGQGTQVTVSS
neutralization titer [11]: 3.4 nM
neutralization titer [15]: 9.7 nM
neutralization titer [17]: 1.4 nM
neutralization titer [18]: 12.1 nM

B5: MD2404 (bispecific antibody)
chain: EVQLVESGGGLVQPGGSLRLSCAVSISIFDIYAMDWYRQAPGKQRDLVATSFRDGSTNYADSVKGRFTISRDNAKNTLYLQMNSLKPEDTAVYLCHVSLYRDPLGVAGGMGVYWGKGALVTVSSAAAGGGGSGGGGSGGGGSGGGGSGGGGSGGGGSGGGGSEVQLVESGGGLVQAGGSLKLSCAASGRTYAMGWFRQAPGKEREFVAHINALGTRTYYSDSVKGRFTISRDNAKNTEYLEMNNLKPEDTAVYYCTAQGQWRAAPVAVAAEYEFWGQGTQVTVSSLINLEGGGGSGGGGSGGGGSGGGGSGGGGSGGGGSGGGGSPAGEVQLVESGGGLVQPGGSLKLSCAASGFTFSTSWMYWLRQAPGKGLEWVSVINTDGGTYYADSVKDRFTISRDNAKDTLYLQMSSLKSEDTAVYYCAKDWGGPEPTRGQGTQVTVSSAAAGGGGSGGGGSGGGGSGGGGSGGGGSGGGGSGGGGSEVQLVESGGGLVQPGGSLKLSCAASGFTFSTSWMYWLRQAPGKGLEWVSVINTDGGTYYADSVKDRFTISRDNAKDTLYLQMSSLKSEDTAVYYCAKDWGGPEPTRGQGTQVTVSS
average neutralization titer [11]: 20.4 nM
average neutralization titer [12]: 34.3 nM
average neutralization titer [13]: 30.3 nM
average neutralization titer [14]: 2.1 nM
average neutralization titer [15]: 12.2 nM
average neutralization titer [16]: 57.7 nM

B6: SD3013 (VHH)
VHH: EVQLVESGGGVVQPGGSLRLSCAASISIFDIYAMDWYRQAPGKQRELVATSFRDGSTYYADSVKGRFTISRDNSKNTLYLQMNSLRAEDTAVYLCHVSLYRDPLGVAGGMGVYWGKGALVTVSS
VNA IC50 [19]: 318 nM
VNA IC50 [20]: 126 nM
VNA IC50 [21]: 6 nM
VNA IC50 [22]: 20 nM

B7: SD3029 (VHH)
VHH: EVQLVESGGGLVQPGGSLRLSCAVSISIFDIYAMDWYRQAPGKQRDLVATSFRDGSTNYADSVKGRFTISRDNAKNTLYLQMNSLKPEDTAVYLCHVSLYRDPLGVAGGLGVYWGKGALVTVSS
VNA IC50 [19]: 632 nM
VNA IC50 [20]: 251 nM
VNA IC50 [21]: 4 nM
VNA IC50 [22]: 20 nM
VNA IC50 [23]: 3 nM

B8: SD3022 (VHH)
VHH: EVQLVESGGGVVQPGGSLRLSCAASISIFDIYAMDWYRQAPGKQRELVAVSFRDGSTYYADSVKGRFTISRDNSKNTLYLQMNSLRPEDTAVYLCHVSLYRDPLGVAGGIGVYWGKGALVTVSS
VNA IC50 [19]: 632 nM
VNA IC50 [21]: 8 nM
VNA IC50 [22]: 20 nM
VNA IC50 [23]: 3 nM

B9: SD3079 (VHH)
VHH: EVQLVESGGGVVQPGGSLRLSCAASISIFDIYAMDWYRQAPGKQRELVAVSFRDGSTYYADSVKGRFTISRDNSKNTLYLQMNSLRAEDTAVYYCHVSLYRDPLGVAGGLGVYWGQGTLVTVSS
VNA IC50 [19]: 949 nM
VNA IC50 [20]: 503 nM
VNA IC50 [21]: 5 nM
VNA IC50 [22]: 16 nM

B10: SD3021 (VHH)
VHH: EVQLVESGGGVVQPGGSLRLSCAASISIFDIYAMDWYRQAPGKQRELVAVSFRDGSTYYADSVKGRFTISRDNSKNTLYLQMNSLRPEDTAVYLCHVSLYRDPLGVAGGLGVYWGKGALVTVSS
VNA IC50 [19]: > 1000 nM
VNA IC50 [21]: 3 nM
VNA IC50 [22]: 15 nM
VNA IC50 [23]: 3 nM

B11: SD3119 (VHH)
VHH: QVQLVESGGGVVQPGGSLRLSCAASISIFDIYAMDWYRQAPGKQRELVAVSFRDGSTYYADSVKGRFTISRDNSKNTLYLQMNSLRAEDTAVYYCHVSLYRDPLGVAGGIGVYWGQGTLVTVSS
VNA IC50 [19]: 253 nM
VNA IC50 [20]: 101 nM
VNA IC50 [21]: 3 nM
VNA IC50 [22]: 6 nM

B12: MD1214 (bispecific antibody)
chain: EVQLVESGGGLVQPGGSLRLSCAVSISIFDIYAMDWYRQAPGKQRDLVATSFRDGSTNYADSVKGRFTISRDNAKNTLYLQMNSLKPEDTAVYLCHVSLYRDPLGVAGGMGVYWGKGALVTVSSAAAGGGGSGGGGSGGGGSEVQLVESGGGLVQAGGSLKLSCAASGRTYAMGWFRQAPGKEREFVAHINALGTRTYYSDSVKGRFTISRDNAKNTEYLEMNNLKPEDTAVYYCTAQGQWRAAPVAVAAEYEFWGQGTQVTVSS
neutralization titer [11]: 0.9 nM
neutralization titer [15]: 7.5 nM
neutralization titer [17]: 1.4 nM
neutralization titer [18]: 12.5 nM

B13: SD3087 (VHH)
VHH: EVQLLESGGGLVQPGGSLRLSCAASGFTLENKAIGWFRQAPGKEREGVLCISKSGSWTYYADSVKGRFTISRDNSKNTVYLQMNSLRPEDTAVYYCATTTAGGGLCWDGTTFSRLASSWGQGTLVTVSS
VNA IC50 [1]: 104 nM
VNA IC50 [2]: 81 nM
VNA IC50 [3]: 201 nM
VNA IC50 [4]: 91 nM
VNA IC50 [5]: 160 nM

B14: SD3092 (VHH)
VHH: EVQLVESGGGLVQPGGSLRLSCAISGLSLDTYAVGWFRQAPGKEREGVSCISSGHGMTYYADSVKGRFTISTDNSKNTLYLQMNSLRAEDTAVYYCATESRYYCSDNWPAPQRYIYWGQGTLVTVSS
VNA IC50 [1]: > 1000 nM
VNA IC50 [2]: 40 nM
VNA IC50 [3]: > 1000 nM
VNA IC50 [4]: 40 nM
VNA IC50 [5]: > 1000 nM

B15: SD3093 (VHH)
VHH: EVQLVESGGGLVQPGGSLRLSCAISGLSLDTYAVGWFRQAPGKEREGVSCISSGHGMTYYADSVKGRFTISTDNSKNTVYLQMNSLRAEDTAVYYCATESRYYCSDNWPAPQRYIYWGQGTLVTVSS
VNA IC50 [1]: 795 nM
VNA IC50 [2]: 40 nM
VNA IC50 [3]: > 1000 nM
VNA IC50 [4]: 32 nM
VNA IC50 [5]: 659 nM

— US20190359693A1
